Source: article PMC8297783, “Autocrine signaling by receptor tyrosine kinases in urothelial carcinoma of the bladder” (PLoS ONE, 2021)

Test system: FL3 cells
Assay: cell proliferation assay, FL3 cells
Type: cell-based, Human
Details: 1% FBS, 6 d, added MST1 alone 5 nM, relative to untreated cells

B1: MST1: exogenous cognate ligand of MST1R, added to cells at 5 nM (protein, UniProt P26927 19-711, looked up)
Hepatocyte growth factor-like …: QRSPLNDFQVLRGTELQHLLHAVVPGPWQEDVADAEECAGRCGPLMDCRAFHYNVSSHGCQLLPWTQHSPHTRLRRSGRCDLFQKKDYVRTCIMNNGVGYRGTMATTVGGLPCQAWSHKFPNDHKYTPTLRNGLEENFCRNPDGDPGGPWCYTTDPAVRFQSCGIKSCREAACVWCNGEEYRGAVDRTESGRECQRWDLQHPHQHPFEPGKFLDQGLDDNYCRNPDGSERPWCYTTDPQIEREFCDLPRCGSEAQPRQEATTVSCFRGKGEGYRGTANTTTAGVPCQRWDAQIPHQHRFTPEKYACKDLRENFCRNPDGSEAPWCFTLRPGMRAAFCYQIRRCTDDVRPQDCYHGAGEQYRGTVSKTRKGVQCQRWSAETPHKPQFTFTSEPHAQLEENFCRNPDGDSHGPWCYTMDPRTPFDYCALRRCADDQPPSILDPPDQVQFEKCGKRVDRLDQRRSKLRVVGGHPGNSPWTVSLRNRQGQHFCGGSLVKEQWILTARQCFSSCHMPLTGYEVWLGTLFQNPQHGEPSLQRVPVAKMVCGPSGSQLVLLKLERSVTLNQRVALICLPPEWYVVPPGTKCEIAGWGETKGTGNDTVLNVALLNVISNQECNIKHRGRVRESEMCTEGLLAPVGACEGDYGGPLACFTHNCWVLEGIIIPNRVCARSRWPAVFTRVSVFVDWIHKVMRLG
With B1 the proliferation rate was “significantly increased proliferation rate”.
